Reference: patent US20060263361A1
Values joined by “and” are separate entries in the source; they are usually repeats but may differ in a detail not shown here. Equal values may be shown once.

Columns and labels:
[1] = molecular target: recombinant KIR2DL1 protein (entire extracellular domain, produced in E. coli, immobilized) (human) (UniProt P43626); experiment: Biacore, KIR2DL1 chip; first Ab EB6 vs competitor (second Ab) EB6 (self)
[2] = molecular target: recombinant KIR2DL1 protein (entire extracellular domain, produced in E. coli, immobilized) (human) (UniProt P43626); experiment: Biacore, KIR2DL1 chip; first Ab EB6 vs competitor (second Ab) 1-4F1
[3] = molecular target: recombinant KIR2DL1 protein (entire extracellular domain, produced in E. coli, immobilized) (human) (UniProt P43626); experiment: Biacore, KIR2DL1 chip; first Ab EB6 vs competitor (second Ab) 1-7F9
[4] = molecular target: recombinant KIR2DL1 protein (entire extracellular domain, produced in E. coli, immobilized) (human) (UniProt P43626); experiment: Biacore, KIR2DL1 chip; first Ab EB6 vs competitor (second Ab) 1-6F1
[5] = molecular target: recombinant KIR2DL1 protein (entire extracellular domain, produced in E. coli, immobilized) (human) (UniProt P43626); experiment: Biacore, KIR2DL1 chip; first Ab EB6 vs competitor (second Ab) DF200
[6] = molecular target: recombinant KIR2DL1 protein (entire extracellular domain, produced in E. coli, immobilized) (human) (UniProt P43626); experiment: Biacore, KIR2DL1 chip; first Ab EB6 vs competitor (second Ab) Pan2D
[7] = molecular target: recombinant KIR2DL1 protein (entire extracellular domain, produced in E. coli, immobilized) (human) (UniProt P43626); experiment: Biacore, KIR2DL1 chip; second Ab injected alone
[8] = molecular target: recombinant KIR2DL3 protein (entire extracellular domain, produced in E. coli, immobilized) (human) (UniProt P43628); experiment: Biacore, KIR2DL3 chip; first Ab gl183 vs competitor (second Ab) Pan2D
Chain of recombinant KIR2DL3 protein (entire extracellular domain, produced in E. coli, immobilized) (human) (P43628 22-245): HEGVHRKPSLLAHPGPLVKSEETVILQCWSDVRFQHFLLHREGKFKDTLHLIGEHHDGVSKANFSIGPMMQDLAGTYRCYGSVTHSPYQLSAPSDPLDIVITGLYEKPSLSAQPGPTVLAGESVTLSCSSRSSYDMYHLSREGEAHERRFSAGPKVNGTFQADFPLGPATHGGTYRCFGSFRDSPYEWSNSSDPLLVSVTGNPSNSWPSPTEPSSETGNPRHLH

[9] = molecular target: recombinant KIR2DL3 protein (entire extracellular domain, produced in E. coli, immobilized) (human) (UniProt P43628); experiment: Biacore, KIR2DL3 chip; first Ab gl183 vs competitor (second Ab) DF200
[10] = molecular target: recombinant KIR2DL3 protein (entire extracellular domain, produced in E. coli, immobilized) (human) (UniProt P43628); experiment: Biacore, KIR2DL3 chip; first Ab gl183 vs competitor (second Ab) 1-7F9
[11] = molecular target: recombinant KIR2DL3 protein (entire extracellular domain, produced in E. coli, immobilized) (human) (UniProt P43628); experiment: Biacore, KIR2DL3 chip; second Ab injected alone
[12] = molecular target: recombinant KIR2DL3 protein (entire extracellular domain, produced in E. coli, immobilized) (human) (UniProt P43628); experiment: Biacore, KIR2DL3 chip; first Ab gl183 vs competitor (second Ab) 1-4F1
[13] = molecular target: recombinant KIR2DL3 protein (entire extracellular domain, produced in E. coli, immobilized) (human) (UniProt P43628); experiment: Biacore, KIR2DL3 chip; first Ab gl183 vs competitor (second Ab) 1-6F1
[14] = molecular target: recombinant KIR2DL3 protein (entire extracellular domain, produced in E. coli, immobilized) (human) (UniProt P43628); experiment: Biacore, KIR2DL3 chip; first Ab DF200 vs competitor (second Ab) Pan2D
[15] = molecular target: recombinant KIR2DL3 protein (entire extracellular domain, produced in E. coli, immobilized) (human) (UniProt P43628); experiment: Biacore, KIR2DL3 chip; first Ab DF200 vs competitor (second Ab) 1-4F1
[16] = molecular target: recombinant KIR2DL1 protein (entire extracellular domain, produced in E. coli, immobilized) (human) (UniProt P43626); experiment: Biacore, KIR2DL1 chip; first Ab DF200 vs competitor (second Ab) Pan2D
[17] = molecular target: recombinant KIR2DL3 protein (entire extracellular domain, produced in E. coli, immobilized) (human) (UniProt P43628); experiment: Biacore, KIR2DL3 chip; first Ab DF200 vs competitor (second Ab) 1-7F9
[18] = molecular target: immobilized KIR 2DS1 (UniProt Q14954); experiment: Biacore, KIR2DS1 chip; second Ab injected alone
Chain of immobilized KIR 2DS1 (Q14954 22-245 limits assumed): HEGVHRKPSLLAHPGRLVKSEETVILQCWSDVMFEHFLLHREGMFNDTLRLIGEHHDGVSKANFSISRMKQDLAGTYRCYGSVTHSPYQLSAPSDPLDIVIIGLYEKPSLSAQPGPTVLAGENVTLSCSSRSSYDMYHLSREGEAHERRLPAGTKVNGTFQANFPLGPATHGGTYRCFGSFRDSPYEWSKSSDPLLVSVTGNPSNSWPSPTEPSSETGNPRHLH

[19] = molecular target: recombinant KIR2DL3 protein (entire extracellular domain, produced in E. coli, immobilized) (human) (UniProt P43628); experiment: Biacore, KIR2DL3 chip; first Ab DF200 vs competitor (second Ab) gl183
[20] = molecular target: recombinant KIR2DL1 protein (entire extracellular domain, produced in E. coli, immobilized) (human) (UniProt P43626); experiment: Biacore, KIR2DL1 chip; first Ab DF200 vs competitor (second Ab) 1-6F1
[21] = molecular target: recombinant KIR2DL3 protein (entire extracellular domain, produced in E. coli, immobilized) (human) (UniProt P43628); experiment: Biacore, KIR2DL3 chip; first Ab DF200 vs competitor (second Ab) 1-6F1
[22] = molecular target: immobilized KIR 2DS1 (UniProt Q14954); experiment: Biacore, KIR2DS1 chip; first Ab DF200 vs competitor (second Ab) Pan2D
[23] = molecular target: recombinant KIR2DL1 protein (entire extracellular domain, produced in E. coli, immobilized) (human) (UniProt P43626); experiment: Biacore, KIR2DL1 chip; first Ab DF200 vs competitor (second Ab) 1-6F5
[24] = molecular target: immobilized KIR 2DS1 (UniProt Q14954); experiment: Biacore, KIR2DS1 chip; first Ab DF200 vs competitor (second Ab) 1-7F9
[25] = molecular target: recombinant KIR2DL1 protein (entire extracellular domain, produced in E. coli, immobilized) (human) (UniProt P43626); experiment: Biacore, KIR2DL1 chip; first Ab DF200 vs competitor (second Ab) 1-4F1
[26] = molecular target: recombinant KIR2DL3 protein (entire extracellular domain, produced in E. coli, immobilized) (human) (UniProt P43628); experiment: Biacore, KIR2DL3 chip; first Ab DF200 vs competitor (second Ab) 1-6F5
[27] = molecular target: recombinant KIR2DL1 protein (entire extracellular domain, produced in E. coli, immobilized) (human) (UniProt P43626); experiment: Biacore, KIR2DL1 chip; first Ab DF200 vs competitor (second Ab) EB6
[28] = molecular target: recombinant KIR2DL1 protein (entire extracellular domain, produced in E. coli, immobilized) (human) (UniProt P43626); experiment: Biacore, KIR2DL1 chip; first Ab DF200 vs competitor (second Ab) 1-7F9
[29] = molecular target: immobilized KIR 2DS1 (UniProt Q14954); experiment: Biacore, KIR2DS1 chip; first Ab DF200 vs competitor (second Ab) 1-4F1
[30] = molecular target: recombinant KIR2DL1 protein (entire extracellular domain, produced in E. coli, immobilized) (human) (UniProt P43626); experiment: Biacore, KIR2DL1 chip; first Ab Pan2D vs competitor (second Ab) 1-6F5
[31] = molecular target: immobilized KIR 2DS1 (UniProt Q14954); experiment: Biacore, KIR2DS1 chip; first Ab Pan2D vs competitor (second Ab) 1-7F9
[32] = molecular target: recombinant KIR2DL3 protein (entire extracellular domain, produced in E. coli, immobilized) (human) (UniProt P43628); experiment: Biacore, KIR2DL3 chip; first Ab Pan2D vs competitor (second Ab) DF200
[33] = molecular target: recombinant KIR2DL3 protein (entire extracellular domain, produced in E. coli, immobilized) (human) (UniProt P43628); experiment: Biacore, KIR2DL3 chip; first Ab Pan2D vs competitor (second Ab) 1-6F1
[34] = molecular target: recombinant KIR2DL3 protein (entire extracellular domain, produced in E. coli, immobilized) (human) (UniProt P43628); experiment: Biacore, KIR2DL3 chip; first Ab Pan2D vs competitor (second Ab) 1-4F1
[35] = molecular target: recombinant KIR2DL1 protein (entire extracellular domain, produced in E. coli, immobilized) (human) (UniProt P43626); experiment: Biacore, KIR2DL1 chip; first Ab Pan2D vs competitor (second Ab) DF200
[36] = molecular target: immobilized KIR 2DS1 (UniProt Q14954); experiment: Biacore, KIR2DS1 chip; first Ab Pan2D vs competitor (second Ab) 1-4F1
[37] = molecular target: recombinant KIR2DL3 protein (entire extracellular domain, produced in E. coli, immobilized) (human) (UniProt P43628); experiment: Biacore, KIR2DL3 chip; first Ab Pan2D vs competitor (second Ab) 1-7F9
[38] = molecular target: recombinant KIR2DL1 protein (entire extracellular domain, produced in E. coli, immobilized) (human) (UniProt P43626); experiment: Biacore, KIR2DL1 chip; first Ab Pan2D vs competitor (second Ab) 1-4F1
[39] = molecular target: recombinant KIR2DL3 protein (entire extracellular domain, produced in E. coli, immobilized) (human) (UniProt P43628); experiment: Biacore, KIR2DL3 chip; first Ab Pan2D vs competitor (second Ab) gl183
[40] = molecular target: recombinant KIR2DL3 protein (entire extracellular domain, produced in E. coli, immobilized) (human) (UniProt P43628); experiment: Biacore, KIR2DL3 chip; first Ab Pan2D vs competitor (second Ab) 1-6F5
[41] = molecular target: immobilized KIR 2DS1 (UniProt Q14954); experiment: Biacore, KIR2DS1 chip; first Ab Pan2D vs competitor (second Ab) DF200
[42] = molecular target: recombinant KIR2DL1 protein (entire extracellular domain, produced in E. coli, immobilized) (human) (UniProt P43626); experiment: Biacore, KIR2DL1 chip; first Ab Pan2D vs competitor (second Ab) 1-6F1
[43] = molecular target: recombinant KIR2DL1 protein (entire extracellular domain, produced in E. coli, immobilized) (human) (UniProt P43626); experiment: Biacore, KIR2DL1 chip; first Ab Pan2D vs competitor (second Ab) 1-7F9
[44] = molecular target: recombinant KIR2DL1 protein (entire extracellular domain, produced in E. coli, immobilized) (human) (UniProt P43626); experiment: Biacore, KIR2DL1 chip; first Ab Pan2D vs competitor (second Ab) EB6

Chain of recombinant KIR2DL1 protein (entire extracellular domain, produced in E. coli, immobilized) (human) (P43626 22-245): as the sequence (Q14954 22-245 limits assumed) above, with K70T, L90V, P114L, T154P, N163D, R182H, E216K counted along it

**Q.** Which results are given for EB6 (IgG1 anti KIR2DL1) (antibody)?
**A.** percent inhibition of second antibody binding [1]: 57%; percent inhibition of second antibody binding [2]: 48%; percent inhibition of second antibody binding [3]: 65%; percent inhibition of second antibody binding [4]: 23%; percent inhibition of second antibody binding [5]: 60%; percent inhibition of second antibody binding [6]: 40%; RU, second antibody alone [7]: 460 RU and 260 RU

**Q.** For GL183 (IgG1 anti KIR2DL3) (antibody), which percent inhibition of second antibody binding [8] is on record?
**A.** The percent inhibition of second antibody binding was 40%.

**Q.** And the percent inhibition of second antibody binding [9]?
**A.** The percent inhibition of second antibody binding was 8%.

**Q.** What about the percent inhibition of second antibody binding [10] of the same substance?
**A.** Its percent inhibition of second antibody binding is 76%.

**Q.** And the RU, second antibody alone [11]?
**A.** Its RU, second antibody alone is 1240 RU and 800 RU and 620 RU.

**Q.** What about the percent inhibition of second antibody binding [12] of the same substance?
**A.** Its percent inhibition of second antibody binding is 75%.

**Q.** What about the percent inhibition of second antibody binding [13] of the same substance?
**A.** The percent inhibition of second antibody binding was 18%.

**Q.** Which results are given for “monoclonal antibody DF200 produced by hybridoma DF200”?
**A.** percent inhibition of second antibody binding [14]: 75%; percent inhibition of second antibody binding [15]: 75%; percent inhibition of second antibody binding [16]: 80%; percent inhibition of second antibody binding [17]: 62%; RU, second antibody alone [18]: 900 RU; percent inhibition of second antibody binding [19]: 20%; percent inhibition of second antibody binding [20]: 15%; percent inhibition of second antibody binding [21]: 16%; percent inhibition of second antibody binding [22]: 70%; percent inhibition of second antibody binding [23]: 15%; percent inhibition of second antibody binding [24]: 15%; percent inhibition of second antibody binding [25]: 92%; percent inhibition of second antibody binding [26]: 4%; RU, second antibody alone [7]: 600 RU and 350 RU; percent inhibition of second antibody binding [27]: 90%; percent inhibition of second antibody binding [28]: 27%; percent inhibition of second antibody binding [29]: 87%

**Q.** For monoclonal antibody NKVSF1, which percent inhibition of second antibody binding [30] is on record?
**A.** The percent inhibition of second antibody binding was 13%.

**Q.** And the percent inhibition of second antibody binding [31]?
**A.** Its percent inhibition of second antibody binding is 45%.

**Q.** What about the percent inhibition of second antibody binding [32] of the same substance?
**A.** The percent inhibition of second antibody binding was 95%.

**Q.** And the percent inhibition of second antibody binding [33]?
**A.** Its percent inhibition of second antibody binding is 8%.

**Q.** And the percent inhibition of second antibody binding [34]?
**A.** The percent inhibition of second antibody binding was 68%.

**Q.** And the percent inhibition of second antibody binding [35]?
**A.** Its percent inhibition of second antibody binding is 90%.

**Q.** And the percent inhibition of second antibody binding [36]?
**A.** Its percent inhibition of second antibody binding is 100%.

**Q.** And the RU, second antibody alone [18]?
**A.** Its RU, second antibody alone is 1350 RU.

**Q.** And the percent inhibition of second antibody binding [37]?
**A.** The percent inhibition of second antibody binding was 15%.

**Q.** And the percent inhibition of second antibody binding [38]?
**A.** The percent inhibition of second antibody binding was 95%.

**Q.** And the RU, second antibody alone [11]?
**A.** Its RU, second antibody alone is 2400 RU and 870 RU and 990 RU.

**Q.** And the percent inhibition of second antibody binding [39]?
**A.** Its percent inhibition of second antibody binding is 85%.

**Q.** What about the percent inhibition of second antibody binding [40] of the same substance?
**A.** Its percent inhibition of second antibody binding is 18%.

**Q.** And the percent inhibition of second antibody binding [41]?
**A.** Its percent inhibition of second antibody binding is 100%.

**Q.** What about the percent inhibition of second antibody binding [42] of the same substance?
**A.** Its percent inhibition of second antibody binding is 12%.

**Q.** And the RU, second antibody alone [7]?
**A.** The RU, second antibody alone was 545 RU and 475 RU.

**Q.** And the percent inhibition of second antibody binding [43]?
**A.** Its percent inhibition of second antibody binding is 2%.

**Q.** What about the percent inhibition of second antibody binding [44] of the same substance?
**A.** The percent inhibition of second antibody binding was 90%.
